This is an account of results in US20200040059A1.

Experiment [1] deals with human B7-H6 (human) (UniProt Q68D85). Description: flow cytometry; MFI vs m9. A general note: Flow cytometry measures light scatter and fluorescence of single cells or particles in a stream.
In experiment [2] the target is CD28 (human) (UniProt P10747). Description: flow cytometry, transfected cells.
Experiment [3] concerns the target human B7-H6 (human) (UniProt Q68D85). Description: flow cytometry, transfected cells.
Experiment [4] addresses CD28 (human) (UniProt P10747). In words: flow cytometry; MFI vs m21.
For experiment [5], the target named is PD-L1 (human) (UniProt Q9NZQ7). In words: flow cytometry; MFI vs m21.
Experiment [6] has as its target PD-L1 (human) (UniProt Q9NZQ7). Description: flow cytometry, transfected cells.
Experiment [7] addresses CD28 (human) (UniProt P10747). Description: flow cytometry on HEK293 cells transfected with CD28.
Experiment [8] addresses CTLA4 (human) (UniProt P16410). In words: flow cytometry on HEK293 cells transfected with CTLA4.
In experiment [9] the target is PD-L1 (human) (UniProt Q9NZQ7). In words: flow cytometry on HEK293 cells transfected with PD-L1.
For experiment [10], the target named is CTLA4 (human) (UniProt P16410). Description: flow cytometry, MFI on CTLA4 cells over MFI on CD28 cells.
The target of experiment [11] is T1, human CD226, full length, expressed on transfected Expi293 cells (human) (UniProt Q15762).
T1 sequence: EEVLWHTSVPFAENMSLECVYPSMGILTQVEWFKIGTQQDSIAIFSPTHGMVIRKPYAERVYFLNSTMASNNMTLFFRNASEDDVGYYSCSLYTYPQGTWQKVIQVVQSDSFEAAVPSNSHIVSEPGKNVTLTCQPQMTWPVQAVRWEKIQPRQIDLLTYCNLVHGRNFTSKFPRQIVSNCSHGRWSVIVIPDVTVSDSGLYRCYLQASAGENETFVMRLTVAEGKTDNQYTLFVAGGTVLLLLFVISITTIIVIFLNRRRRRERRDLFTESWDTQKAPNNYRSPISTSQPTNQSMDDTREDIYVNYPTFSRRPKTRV
Description: flow cytometry, Expi293 cells transfected with full-length human CD226.

The target of experiment [12] is human CD28, full-length, expressed on transfected Expi293 cells (human) (UniProt P10747). Description: flow cytometry on CD28-expressing Expi293 cells.
Experiment [13] addresses human ICOS, full-length, expressed on transfected Expi293 cells (human) (UniProt Q9Y6W8). In words: flow cytometry on ICOS-expressing Expi293 cells.
Experiment [14] deals with human B7-H6, full-length, expressed on transfected Expi293 cells (human) (UniProt Q68D85). In words: flow cytometry on B7-H6-expressing Expi293 cells.
In experiment [15] the target is CD80 (Homo sapiens (Human)) (UniProt P33681). In words: flow cytometry, cells expressing CD80.
Experiment [16] shares this target. In words: flow cytometry, cells expressing CD80; vs WT PD-L1 (IgV + IgC) Fc.
Experiment [17] addresses human B7-H6 (human) (UniProt Q68D85). Description: flow cytometry; MFI vs m10.
The next experiment has as its target human ICOS (human). In words: flow cytometry, transfected cells.
The target of experiment [18] is CTLA4 (human) (UniProt P16410). Description: flow cytometry, transfected cells; column head doubtful.
The target in experiment [19] is PD-L1 (human) (UniProt Q9NZQ7). The experiment is described as above.
The target of experiment [20] is CTLA4 (human) (UniProt P16410). In words: flow cytometry; MFI vs m21.
In experiment [21] the target is CTLA4 (human) (UniProt P16410). In words: flow cytometry, transfected cells.
Experiment [22] has as its target CD28 (human) (UniProt P10747). In words: flow cytometry; MFI vs m14.
In experiment [23] the target is human B7-H6 (human) (UniProt Q68D85). In words: flow cytometry; MFI vs m14.

Sequence of CTLA4 (human) (P16410 36-223 limits assumed): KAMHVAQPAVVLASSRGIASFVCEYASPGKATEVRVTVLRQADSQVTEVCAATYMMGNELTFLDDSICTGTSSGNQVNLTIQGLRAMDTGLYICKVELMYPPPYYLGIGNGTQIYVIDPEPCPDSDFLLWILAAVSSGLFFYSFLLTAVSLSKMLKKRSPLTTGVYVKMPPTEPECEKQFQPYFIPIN
Sequence of human B7-H6 (human) (Q68D85 25-454): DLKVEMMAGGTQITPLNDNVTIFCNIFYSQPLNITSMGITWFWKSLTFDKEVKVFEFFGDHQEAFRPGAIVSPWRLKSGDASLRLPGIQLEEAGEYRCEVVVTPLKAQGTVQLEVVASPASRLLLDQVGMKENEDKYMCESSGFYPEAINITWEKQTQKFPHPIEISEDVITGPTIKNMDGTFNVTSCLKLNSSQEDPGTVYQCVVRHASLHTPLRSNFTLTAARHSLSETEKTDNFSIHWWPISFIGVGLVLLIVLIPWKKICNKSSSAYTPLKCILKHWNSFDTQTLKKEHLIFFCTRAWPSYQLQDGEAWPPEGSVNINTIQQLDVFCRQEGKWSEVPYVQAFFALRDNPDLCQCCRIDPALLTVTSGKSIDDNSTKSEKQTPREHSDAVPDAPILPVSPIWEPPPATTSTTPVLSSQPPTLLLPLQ
Sequence of Domain 1: ICOSL WT / Domain 2: CD80 WT / Fc (Fc fusion) (chain): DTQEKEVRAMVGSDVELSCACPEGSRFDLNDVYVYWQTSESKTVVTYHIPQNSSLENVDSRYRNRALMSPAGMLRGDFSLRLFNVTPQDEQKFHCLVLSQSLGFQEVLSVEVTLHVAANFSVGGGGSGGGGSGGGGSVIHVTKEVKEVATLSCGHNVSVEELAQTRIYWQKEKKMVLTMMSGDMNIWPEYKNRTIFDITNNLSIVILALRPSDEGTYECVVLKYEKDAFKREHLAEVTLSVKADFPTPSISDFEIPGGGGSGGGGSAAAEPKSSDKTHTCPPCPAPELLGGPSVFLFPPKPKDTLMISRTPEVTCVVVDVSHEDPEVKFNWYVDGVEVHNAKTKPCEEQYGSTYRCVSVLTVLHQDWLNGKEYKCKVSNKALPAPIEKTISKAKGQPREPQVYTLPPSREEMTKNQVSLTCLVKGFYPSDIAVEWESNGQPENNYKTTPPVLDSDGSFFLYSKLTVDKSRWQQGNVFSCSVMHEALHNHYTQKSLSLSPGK
Sequence of PD-L1 (human) (Q9NZQ7 19-290 limits assumed): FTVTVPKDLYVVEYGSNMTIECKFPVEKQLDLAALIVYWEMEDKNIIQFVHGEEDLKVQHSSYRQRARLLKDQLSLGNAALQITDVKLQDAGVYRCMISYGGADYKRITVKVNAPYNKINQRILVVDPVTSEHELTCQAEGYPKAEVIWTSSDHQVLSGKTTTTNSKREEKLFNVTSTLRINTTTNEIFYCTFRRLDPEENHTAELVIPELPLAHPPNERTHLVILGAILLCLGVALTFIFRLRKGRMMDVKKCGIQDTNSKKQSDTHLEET
Sequence of human B7-H6, full-length, expressed on transfected Expi293 cells (human) (Q68D85 25-454): as the sequence (Q68D85 25-454) above
Sequence of CD80 (Homo sapiens (Human)) (P33681 35-288 limits assumed): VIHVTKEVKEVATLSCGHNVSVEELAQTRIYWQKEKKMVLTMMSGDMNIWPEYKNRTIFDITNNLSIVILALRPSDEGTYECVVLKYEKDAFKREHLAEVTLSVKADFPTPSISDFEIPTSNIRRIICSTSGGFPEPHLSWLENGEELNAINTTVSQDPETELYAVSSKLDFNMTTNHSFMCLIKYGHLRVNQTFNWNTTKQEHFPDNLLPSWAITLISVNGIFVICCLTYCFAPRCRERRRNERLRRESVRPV
Sequence of human ICOS (human) (Q9Y6W8 whole entry): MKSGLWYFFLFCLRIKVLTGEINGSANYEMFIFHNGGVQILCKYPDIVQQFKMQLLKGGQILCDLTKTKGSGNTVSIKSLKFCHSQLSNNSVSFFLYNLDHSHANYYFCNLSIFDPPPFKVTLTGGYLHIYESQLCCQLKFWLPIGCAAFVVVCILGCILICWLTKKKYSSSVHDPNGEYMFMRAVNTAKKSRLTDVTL
Sequence of human ICOS, full-length, expressed on transfected Expi293 cells (human) (Q9Y6W8 21-199 limits assumed): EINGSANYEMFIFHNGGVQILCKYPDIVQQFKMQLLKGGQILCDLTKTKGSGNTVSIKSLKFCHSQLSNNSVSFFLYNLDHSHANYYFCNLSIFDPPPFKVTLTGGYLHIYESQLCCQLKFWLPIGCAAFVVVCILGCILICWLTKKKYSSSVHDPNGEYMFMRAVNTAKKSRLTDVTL

As to “Domain 1: NKp30 WT / Domain 2: CD80 WT / Fc (Fc fusion)”, the WT parental MFI ratio in the experiment with human B7-H6 (human) [1] worked out at 1. The MFI in the experiment with CD28 (human) [2] came to 7020; in the experiment with human B7-H6 (human) [3] it was 88800.

In the case of “Domain 1: CD80 I67T/L70Q/A91G/T120S / Domain 2: CD80 E88D/K89R/D90K/A91G/F92Y/K93R / Fc (Fc fusion)”, the WT parental MFI ratio with CD28 (human) [4] was 0.57; in the experiment with PD-L1 (human) [5] it was 0.16. Moreover, the MFI with CD28 (human) [2] turned out to be 938; with PD-L1 (human) [6], 995.

With CD80 IgV-Fc I30T/L70R (Fc fusion), the Fold change to WT came out at 0.1 fold with CD28 (human) [7] and 0 fold with CTLA4 (human) [8]. The MFI at 66.6 nM turned out to be 2600 MFI in the experiment with CD28 (human) [7] and 2230 MFI with CTLA4 (human) [8]. Also, the MFI at 22.2 nM with PD-L1 (human) [9] came out at 5160 MFI. Besides, the Ratio of CTLA4:CD28 with CTLA4 (human) [10] turned out to be 0.9.

“CD112 variant A95V, A112I IgV-Fc fusion (from UniProt Q92692 32-156)” had an MFI in experiment [11] of 51900 MFI.

Take “stacked Fc fusion, Domain 1: ICOSL WT / Domain 2: Nkp30 WT”: the figures for the MFI in experiment [12], in [13] and in [14] were 7920 MFI, 70300 MFI and 118000 MFI, respectively. The WT parental MFI ratio (ratio to WT stack) in experiment [14] was 1.

On to “variant PD-L1 ECD-Fc K57R, S99G, F189L (from UniProt Q9NZQ7 19-239) (Fc fusion)”, for which the MFI at 20 nM in experiment [15] stood at 12900. In addition, the Fold Change Compared to WT PD-L1 in [16] was 96.3 fold.

As to “Domain 1: NKp30 WT / Domain 2: CD86 WT / Fc (Fc fusion)”, the WT parental MFI ratio in the experiment with human B7-H6 (human) [17] is 1. In addition, the MFI with CD28 (human) [2] is 1690; with human B7-H6 (human) [3] it was 14100.

For “Domain 1: ICOSL WT / Domain 2: CD80 WT / Fc (Fc fusion)”, the MFI with CD28 (human) [2] turned out to be 3000; in the experiment with PD-L1 (human) [6], 2970; with human ICOS (human) it was 14400; with CTLA4 (human) [18] it was 14400; with PD-L1 (human) [19], 3000.

As to “Domain 1: CD80 R29V/Y31F/K36G/M38L/M43Q/E81R/V83I/L85I/K89R/D90L/A91E/F92N/K93Q/R94G / Domain 2: CD80 E88D/K89R/D90K/A91G/F92Y/K93R / Fc (Fc fusion)”, the WT parental MFI ratio worked out at 0.42 with CTLA4 (human) [20] and 0.31 in the experiment with PD-L1 (human) [5]. Moreover, the MFI worked out at 1990 in the experiment with CTLA4 (human) [21] and 1930 in the experiment with PD-L1 (human) [6].

On to “Domain 1: CD80 (R29H/Y31H/T41G/Y87N/E88G/K89E/D90N/A91G/P109S) / Domain 2: NKp30 (L30V/A60V/S64P/S86G) / Fc (Fc fusion)”, for which the values for the WT parental MFI ratio in the experiment with CD28 (human) [22] and with human B7-H6 (human) [23] were 0.32 and 0.5, respectively. Besides, the MFI came out at 4340 with CD28 (human) [2] and 55700 in the experiment with human B7-H6 (human) [3].
